Data on one variant can be found in IntAct's records for PubMed 15841490.

The chains are these.
B1: SH2 domain-containing protein 1A (Homo sapiens), O60880-1 (parent)
chain: MDAVAVYHGKISRETGEKLLLATGLDGSYLLRDSESVPGVYCLCVLYHGYIYTYRVSQTETGSWSAETAPGVHKRYFRKIKNLISAFQKPDQGIVIPLQYPVEKKSSARSTQGTTGIREDPDVCLKAP
partner: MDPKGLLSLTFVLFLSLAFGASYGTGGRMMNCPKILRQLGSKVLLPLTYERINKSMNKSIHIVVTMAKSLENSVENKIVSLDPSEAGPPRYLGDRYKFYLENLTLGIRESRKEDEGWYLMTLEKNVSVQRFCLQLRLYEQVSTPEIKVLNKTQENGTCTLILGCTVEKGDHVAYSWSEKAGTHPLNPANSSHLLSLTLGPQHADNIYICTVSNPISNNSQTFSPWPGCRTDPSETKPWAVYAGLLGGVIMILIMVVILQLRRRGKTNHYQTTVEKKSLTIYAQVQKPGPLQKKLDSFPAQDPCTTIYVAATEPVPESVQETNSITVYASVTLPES

In this experiment the parent is B1. Particulars: with slaf1_human SLAMF1, Q13291.
In the case of G16D, the “effect of a mutation on the interaction” value is “disrupting interaction strength”.
